From patent US20250320281A1

Legend:
Assay in all cases: cell-based or functional assay
[1] = target: HIV-1 Env of isolate 92RW020 (clade A) on pseudovirus (HIV-1)
[2] = target: HIV-1 Env of isolate APV17 (clade B) on pseudovirus (HIV-1)
[3] = target: HIV-1 Env of isolate MGRM-D-001 (clade D) on pseudovirus (HIV-1)
[4] = target: HIV-1 Env of isolate 93UG077 (clade A) on pseudovirus (HIV-1)
[5] = target: HIV-1 Env of isolate JRCSF (clade B) on pseudovirus (HIV-1) (UniProt P20871)
[6] = target: HIV-1 Env of isolate APV6 (clade B) on pseudovirus (HIV-1)
[7] = target: HIV-1 Env of isolate APV13 (clade B) on pseudovirus (HIV-1)
[8] = target: HIV-1 Env of isolate 94UG103 (clade A) on pseudovirus (HIV-1)
[9] = target: HIV-1 Env of isolate 92BR020 (clade B) on pseudovirus (HIV-1)
[10] = target: HIV-1 Env of isolate MGRM-C-027 (clade C) on pseudovirus (HIV-1)
[11] = target: HIV-1 Env of isolate MGRM-C-026 (clade C) on pseudovirus (HIV-1)
[12] = target: HIV-1 Env of isolate 93IN905 (clade C) on pseudovirus (HIV-1)
[13] = target: HIV-1 Env of isolate MGRM-D-018 (clade D) on pseudovirus (HIV-1)
[14] = target: HIV-1 Env of isolate JRFL (clade B) on pseudovirus (HIV-1)

PGT-121 (4838_L06; 4873_E03) human monoclonal anti-HIV antibody
IC80 (pseudovirus neutralization) [1]: 0.0188 µg/mL | IC90 (pseudovirus neutralization) [1]: 0.0361 µg/mL | IC95 (pseudovirus neutralization) [1]: 0.0671 µg/mL | IC80 (pseudovirus neutralization) [2]: 0.371 µg/mL | IC90 (pseudovirus neutralization) [2]: 0.799 µg/mL | IC95 (pseudovirus neutralization) [2]: 1.55 µg/mL | IC80 (pseudovirus neutralization) [3]: 3.29 µg/mL | IC90 (pseudovirus neutralization) [3]: 6.26 µg/mL | IC95 (pseudovirus neutralization) [3]: 9.39 µg/mL | IC90 (pseudovirus neutralization) [4]: 0.369 µg/mL | IC95 (pseudovirus neutralization) [4]: 0.74 µg/mL | IC90 (pseudovirus neutralization) [5]: 0.223 µg/mL | IC95 (pseudovirus neutralization) [5]: 0.417 µg/mL | IC80 (pseudovirus neutralization) [6]: 0.145 µg/mL | IC95 (pseudovirus neutralization) [6]: 0.569 µg/mL | IC80 (pseudovirus neutralization) [7]: 1.31 µg/mL | IC90 (pseudovirus neutralization) [7]: 2.8 µg/mL | IC95 (pseudovirus neutralization) [7]: 5.15 µg/mL | IC80 (pseudovirus neutralization) [8]: 8.85 µg/mL | IC80 (pseudovirus neutralization) [9]: 0.0532 µg/mL | IC90 (pseudovirus neutralization) [9]: 0.101 µg/mL | IC80 (pseudovirus neutralization) [10]: 0.0829 µg/mL | IC90 (pseudovirus neutralization) [10]: 0.374 µg/mL | IC95 (pseudovirus neutralization) [10]: 3.14 µg/mL | IC95 (pseudovirus neutralization) [11]: 0.0687 µg/mL | IC80 (pseudovirus neutralization) [12]: 0.0302 µg/mL | IC90 (pseudovirus neutralization) [12]: 0.0645 µg/mL | IC80 (pseudovirus neutralization) [13]: 0.0231 µg/mL | IC90 (pseudovirus neutralization) [13]: 0.0414 µg/mL | IC95 (pseudovirus neutralization) [13]: 0.0715 µg/mL | IC80 (pseudovirus neutralization) [14]: 0.0806 µg/mL | IC90 (pseudovirus neutralization) [14]: 0.151 µg/mL | IC95 (pseudovirus neutralization) [14]: 0.267 µg/mL
